Molecular target: T1, Zea mays ZMET2 (residues 130-912), core fragment harboring the CD, BAH and MTase domains (Zea mays, UniProt Q9AXT8 130-912, in the crystallised complex C517 is covalently linked to the target 5-fluorocytosine (fC10) of the hmCAG DNA)
T1 construct: ZMET2, chromomethylase, CMT3 ortholog of Zea mays, residues 130-912; in the enzymatic assays and the EMSA the free protein was used; also called WT ZMET2; source: E. coli BL21 DE3 (RIL), purified (Ni-NTA, Heparin HP, Superdex 200); not shown: His6-SUMO, N-terminal, cleaved
T1 sequence (looked up): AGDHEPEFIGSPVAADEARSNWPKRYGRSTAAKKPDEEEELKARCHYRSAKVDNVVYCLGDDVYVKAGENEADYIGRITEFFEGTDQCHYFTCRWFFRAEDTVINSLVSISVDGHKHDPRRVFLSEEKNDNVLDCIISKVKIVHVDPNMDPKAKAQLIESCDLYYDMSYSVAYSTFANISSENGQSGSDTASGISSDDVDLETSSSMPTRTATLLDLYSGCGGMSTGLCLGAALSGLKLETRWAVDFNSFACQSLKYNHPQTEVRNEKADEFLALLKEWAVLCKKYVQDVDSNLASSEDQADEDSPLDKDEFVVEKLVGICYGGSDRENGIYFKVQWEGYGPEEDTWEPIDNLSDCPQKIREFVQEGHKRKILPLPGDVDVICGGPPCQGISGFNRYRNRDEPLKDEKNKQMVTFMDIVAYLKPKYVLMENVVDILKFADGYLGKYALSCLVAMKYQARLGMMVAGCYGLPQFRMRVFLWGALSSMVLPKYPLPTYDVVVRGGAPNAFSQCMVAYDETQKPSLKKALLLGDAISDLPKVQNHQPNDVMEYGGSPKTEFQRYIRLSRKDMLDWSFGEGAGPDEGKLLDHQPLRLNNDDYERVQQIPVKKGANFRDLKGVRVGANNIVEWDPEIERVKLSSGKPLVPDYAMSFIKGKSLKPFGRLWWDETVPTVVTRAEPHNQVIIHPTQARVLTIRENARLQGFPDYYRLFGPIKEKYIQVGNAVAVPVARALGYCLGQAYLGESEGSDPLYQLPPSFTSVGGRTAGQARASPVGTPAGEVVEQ
Assay: crystal structure; covalent ZMET2-hmCAG DNA complex with the H3_(1–32)Kc9me2 peptide and SAH; sitting drop at 4 °C, 0.1 M sodium citrate pH 5.5, 15% w/v polyethylene glycol 6000
Conditions: both partners purified

- stoichiometry N: 2 peptides per ZMET2 complex
B1: histone H3 peptide residues 1-32 harboring the Kc9me2 modification (methyl-lysine analog of H3K9me2) (peptide)
peptide: not shown
modifications: Kc9me2: cysteine 9 (K9C) alkylated with (2-chloroethyl)-dimethylammonium chloride to the methyl-lysine analog of dimethyl-lysine
notes: Histone H3 residues 1-32; The removal of the His6-SUMO tag is told only through 'initial purification as described above'; also called H3_(1–32)Kc9me2; H3Kc9me2; source: E. coli BL21 DE3 (RIL), purified (HiTrap SP HP), alkylated, purified again (HiTrap SP HP); not shown: His6-SUMO, N-terminal, cleaved

Source: article PMC9256654, “Mechanistic basis for maintenance of CHG DNA methylation in plants” (Nature Communications, 2022)
